Test results published in PMC5125079 (Mycopathologia, 2011).

How the values were obtained:
[1] = target: the molecule itself; assay: SDS-PAGE with tryptic digestion and mass spectrometry of the bands
[2] = target: the molecule itself; assay: SDS-PAGE and Western blot

| Protein | stoichiometry N [1] | stoichiometry N [2] |
| --- | --- | --- |
| Cryptococcus neoformans recombinant antiphagocytic protein 1 (rApp1) (natural protein) MMSSATAELCFDCANCVEMLPKGTTKSVTRPEILERLTRIENHIEVQTALLSTMAASKDYKKKVYTDDDDELEEPEVQLCNMTCEMAALKTYKPQTKVSNHKIVIEAALGRLDHVNGESSIRWAQSVILGLQAAETLQNDKQMMELARVIGCLEACELRWAGDWRAGVASITLKELRTLMI | 2 |  |
| App1 in total protein from C. neoformans WT (H99) (natural protein) MMSSATAELCFDCANCVEMLPKGTTKSVTRPEILERLTRIENHIEVQTALLSTMAASKDYKKKVYTDDDDELEEPEVQLCNMTCEMAALKTYKPQTKVSNHKIVIEAALGRLDHVNGESSIRWAQSVILGLQAAETLQNDKQMMELARVIGCLEACELRWAGDWRAGVASITLKELRTLMI |  | 2 |
